Measurements from the supplement of paper PMC9112550, “Optimization of the antimicrobial peptide Bac7 by deep mutational scanning” (BMC Biology, 2022).

Tested on: Escherichia coli TOP10
Assay: shrunken log2 fold change of peptide-encoding DNA abundance (4.5 h post-induction vs induction); higher = less antimicrobial activity (less host growth inhibition)
Conditions: time post-induction: 4.5 h; library: site-saturation at positions 5, 18, 19, 20
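Note: peptides expressed intracellularly from a pBAD plasmid library in pooled LB shake-flask culture, induced with 0.3% L-arabinose, DNA abundance read by NGS, three biological replicates, DESeq2 with apeglm shrinkage.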

Sequence	shrunken log2 fold change
RRIRWRPPRLPRPRPRPTAKPRP	0.0717
RRIRERPPRLPRPRPRPWIFPRP	-0.101
RRIRHRPPRLPRPRPRPEMTPRP	0.0257
RRIRTRPPRLPRPRPRPDLDPRP	0.145
RRIRQRPPRLPRPRPRPFGPPRP	0.0675
RRIRQRPPRLPRPRPRPVTPPRP	-0.00477
RRIRVRPPRLPRPRPRPLKQPRP	-0.0521
RRIRYRPPRLPRPRPRPTCVPRP	-0.503
RRIRPRPPRLPRPRPRPIEVPRP	-0.113
RRIRDRPPRLPRPRPRPCLFPRP	0.076
RRIRHRPPRLPRPRPRPRVTPRP	0.0786
RRIRERPPRLPRPRPRPIIYPRP	-0.412
RRIRTRPPRLPRPRPRPIQPPRP	0.00206
RRIRKRPPRLPRPRPRPKERPRP	-0.0188
RRIRRRPPRLPRPRPRPVHAPRP	0.67
RRIRYRPPRLPRPRPRPGLCPRP	-0.0365
RRIRMRPPRLPRPRPRPSFSPRP	-0.176
RRIRPRPPRLPRPRPRPDINPRP	-0.673
RRIRPRPPRLPRPRPRPCFWPRP	0.179
RRIRWRPPRLPRPRPRPLWHPRP	-0.0484
RRIRNRPPRLPRPRPRPTWLPRP	0.195
RRIRHRPPRLPRPRPRPVFGPRP	0.0859
RRIRGRPPRLPRPRPRPVPEPRP	1.98
RRIRCRPPRLPRPRPRPNHDPRP	-0.589
RRIRYRPPRLPRPRPRPMMTPRP	-0.111

Sequence	shrunken log2 fold change
RRIRHRPPRLPRPRPRPNLYPRP	-0.012
RRIRDRPPRLPRPRPRPDTAPRP	-0.0593
RRIRHRPPRLPRPRPRPMTHPRP	-0.235
RRIRWRPPRLPRPRPRPRPRPRP	0.974
RRIRPRPPRLPRPRPRPGIYPRP	-0.133
RRIRQRPPRLPRPRPRPNDPPRP	-0.0265
RRIRERPPRLPRPRPRPDAFPRP	-0.038
RRIRMRPPRLPRPRPRPFMWPRP	-0.128
RRIRLRPPRLPRPRPRPPAAPRP	0.771
RRIRTRPPRLPRPRPRPLACPRP	0.0365
RRIRERPPRLPRPRPRPCKTPRP	0.0029
RRIRLRPPRLPRPRPRPHKEPRP	0.0165
RRIRSRPPRLPRPRPRPAPCPRP	0.308
RRIRLRPPRLPRPRPRPWTNPRP	0.0169
RRIRVRPPRLPRPRPRPGDFPRP	0.0156
RRIRGRPPRLPRPRPRPMDVPRP	0.265
RRIRKRPPRLPRPRPRPWKNPRP	-0.00973
RRIRYRPPRLPRPRPRPAWCPRP	-0.0756
RRIRPRPPRLPRPRPRPTKYPRP	-0.344
RRIRWRPPRLPRPRPRPHLDPRP	-0.0108
RRIRQRPPRLPRPRPRPALAPRP	0.73
RRIRTRPPRLPRPRPRPFWKPRP	0.0184
RRIRFRPPRLPRPRPRPEHMPRP	0.0146
RRIRPRPPRLPRPRPRPPHYPRP	0.457
RRIRYRPPRLPRPRPRPMISPRP	-0.126

Sequence	shrunken log2 fold change
RRIRIRPPRLPRPRPRPLAWPRP	0.0118
RRIRMRPPRLPRPRPRPEHDPRP	1.62
RRIRFRPPRLPRPRPRPSNKPRP	-0.0849
RRIRIRPPRLPRPRPRPVQEPRP	0.00511
RRIRGRPPRLPRPRPRPDEIPRP	-0.0447
RRIRYRPPRLPRPRPRPHQVPRP	-0.208
RRIRHRPPRLPRPRPRPFQMPRP	-0.0675
RRIRVRPPRLPRPRPRPDAQPRP	-0.136
RRIRTRPPRLPRPRPRPVVIPRP	1.29
RRIRYRPPRLPRPRPRPIGMPRP	-0.265
RRIRRRPPRLPRPRPRPDFHPRP	-0.111
RRIRKRPPRLPRPRPRPPCRPRP	0.264
RRIRIRPPRLPRPRPRPGFMPRP	-0.487
RRIRNRPPRLPRPRPRPDKTPRP	-0.0594
RRIRTRPPRLPRPRPRPIILPRP	-0.25
RRIRTRPPRLPRPRPRPIGTPRP	0.0179
RRIRLRPPRLPRPRPRPLPLPRP	0.338
RRIRMRPPRLPRPRPRPLVWPRP	0.955
RRIRNRPPRLPRPRPRPWKTPRP	0.0489
RRIRLRPPRLPRPRPRPYPCPRP	0.0537
RRIRGRPPRLPRPRPRPPMTPRP	0.895
RRIRSRPPRLPRPRPRPDTTPRP	-0.191
RRIRKRPPRLPRPRPRPPRRPRP	1.04
RRIRTRPPRLPRPRPRPCDWPRP	-0.0538
RRIRLRPPRLPRPRPRPCSFPRP	-0.051

Sequence	shrunken log2 fold change
RRIRARPPRLPRPRPRPIIFPRP	-0.323
RRIRKRPPRLPRPRPRPWIRPRP	-0.336
RRIRHRPPRLPRPRPRPNIYPRP	-0.11
RRIRNRPPRLPRPRPRPLCAPRP	0.194
RRIRSRPPRLPRPRPRPFWFPRP	-0.113
RRIRTRPPRLPRPRPRPSKMPRP	-0.793
RRIRCRPPRLPRPRPRPMLHPRP	-0.378
RRIRHRPPRLPRPRPRPLHRPRP	-0.158
RRIRWRPPRLPRPRPRPDKWPRP	-0.161
RRIRCRPPRLPRPRPRPALKPRP	0.0946
RRIRKRPPRLPRPRPRPYTKPRP	-0.138
RRIRFRPPRLPRPRPRPICNPRP	-0.424
RRIRNRPPRLPRPRPRPIRHPRP	-0.0817
RRIRIRPPRLPRPRPRPTDEPRP	0.125
RRIRCRPPRLPRPRPRPYGVPRP	-0.159
RRIRKRPPRLPRPRPRPVTWPRP	0.0106
RRIRQRPPRLPRPRPRPTCGPRP	0.285
RRIRIRPPRLPRPRPRPTQTPRP	0.0595
RRIRPRPPRLPRPRPRPCYSPRP	-0.507
RRIRARPPRLPRPRPRPKMCPRP	-0.0542
RRIRRRPPRLPRPRPRPESGPRP	0.545
RRIRRRPPRLPRPRPRPGMDPRP	0.0814
RRIRARPPRLPRPRPRPEMTPRP	1.23
RRIRLRPPRLPRPRPRPLRWPRP	0.524
RRIRARPPRLPRPRPRPVHDPRP	0.146

Sequence	shrunken log2 fold change
RRIRMRPPRLPRPRPRPYFHPRP	-0.614
RRIRCRPPRLPRPRPRPIIDPRP	-0.323
RRIRPRPPRLPRPRPRPCGNPRP	-0.0502
RRIRCRPPRLPRPRPRPEYLPRP	-0.258
RRIRERPPRLPRPRPRPWMLPRP	-0.234
RRIRCRPPRLPRPRPRPFHGPRP	-0.036
RRIRRRPPRLPRPRPRPSNPPRP	-0.203
RRIRHRPPRLPRPRPRPSGKPRP	-0.0266
RRIRHRPPRLPRPRPRPGNGPRP	0.278
RRIRERPPRLPRPRPRPDSEPRP	-0.0854
RRIRHRPPRLPRPRPRPTVYPRP	-0.219
RRIRGRPPRLPRPRPRPMCPPRP	0.0883
RRIRDRPPRLPRPRPRPVYYPRP	-0.707
RRIRFRPPRLPRPRPRPQGDPRP	0.014
RRIRHRPPRLPRPRPRPVIFPRP	-0.395
RRIRNRPPRLPRPRPRPIMMPRP	-0.103
RRIRDRPPRLPRPRPRPKSGPRP	0.0754
RRIRTRPPRLPRPRPRPMEYPRP	-0.0122
RRIRPRPPRLPRPRPRPTASPRP	0.259
RRIRKRPPRLPRPRPRPPKSPRP	0.462
RRIRLRPPRLPRPRPRPEAAPRP	0.732
RRIRQRPPRLPRPRPRPFYRPRP	-0.0149
RRIRRRPPRLPRPRPRPMYIPRP	-0.73
RRIRYRPPRLPRPRPRPCVSPRP	-0.0134
RRIRCRPPRLPRPRPRPTDTPRP	-0.438
